The assay deals with human CRM1 (HsCRM1), wild type (human, UniProt O14980 1-1071). Description: direct titration, PKI WT set.
human CRM1 (HsCRM1), wild type, sequence (O14980 whole entry): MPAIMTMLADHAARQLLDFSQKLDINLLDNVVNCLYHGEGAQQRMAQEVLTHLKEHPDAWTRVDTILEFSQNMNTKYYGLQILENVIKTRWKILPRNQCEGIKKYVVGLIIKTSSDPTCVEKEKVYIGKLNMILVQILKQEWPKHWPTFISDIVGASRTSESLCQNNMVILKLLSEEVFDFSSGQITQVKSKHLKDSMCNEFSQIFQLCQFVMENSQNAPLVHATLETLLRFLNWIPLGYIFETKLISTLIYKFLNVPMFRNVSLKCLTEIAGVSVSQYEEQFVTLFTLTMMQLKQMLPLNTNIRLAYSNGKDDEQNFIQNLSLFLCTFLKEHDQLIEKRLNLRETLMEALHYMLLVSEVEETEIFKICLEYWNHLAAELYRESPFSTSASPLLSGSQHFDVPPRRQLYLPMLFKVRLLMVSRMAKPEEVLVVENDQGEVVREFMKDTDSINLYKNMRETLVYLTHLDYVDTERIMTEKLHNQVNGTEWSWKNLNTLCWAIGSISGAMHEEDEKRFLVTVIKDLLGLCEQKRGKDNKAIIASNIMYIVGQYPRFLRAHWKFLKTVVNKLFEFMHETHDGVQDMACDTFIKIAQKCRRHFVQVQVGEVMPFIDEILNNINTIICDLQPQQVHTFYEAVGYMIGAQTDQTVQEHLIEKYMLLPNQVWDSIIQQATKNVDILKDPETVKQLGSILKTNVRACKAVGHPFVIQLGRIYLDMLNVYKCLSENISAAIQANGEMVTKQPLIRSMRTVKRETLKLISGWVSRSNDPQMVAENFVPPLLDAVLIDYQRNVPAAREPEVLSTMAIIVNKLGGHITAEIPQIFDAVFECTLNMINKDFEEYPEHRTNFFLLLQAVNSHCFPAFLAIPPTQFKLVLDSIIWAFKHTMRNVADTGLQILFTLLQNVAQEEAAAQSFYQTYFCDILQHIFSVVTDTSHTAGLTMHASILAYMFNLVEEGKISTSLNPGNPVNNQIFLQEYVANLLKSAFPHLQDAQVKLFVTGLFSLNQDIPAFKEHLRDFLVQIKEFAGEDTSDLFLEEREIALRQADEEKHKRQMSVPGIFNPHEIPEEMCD

Usually Kd stands for the constant that tells how readily two partners part at equilibrium. Higher therefore signals weaker binding. NSNELALKLAGLDINKT (FITC label (FITC-PKI^NES)) [FITC-PKI NES (NES of Protein Kinase A Inhibitor, wild type)] came in with an equilibrium dissociation constant (Kd) of 29 nM.

The values are drawn from PMC5358978 (2017).
